Test: soluble on expression in E. coli; label from the status in PepcDB or PDB records

| Sequence | soluble on expression in E. coli |
| --- | --- |
| TVSVLLPFVATEFYRRLVEGIEGVLLEQRYDLALFPILSLARLKRYLENTTLAYLTDGLILASYDLTERFEEGRLPTERPVVLVDAQNPRYDSVYLDNRLGGRLAGAYLARFPGPIFAIAVEEEPDRAFRRTVFAERMAGFQEALKEAGRPFSPDRLYITRHSQEGGRLALRHFLEKASPPLNVFAGADQVALGVLEEAVRLGLTPGRDVRVLGFDGHPFAEEAGLSTIAQPVEAMGARAAQLLLERMRGYQGPPREVRFEPVLVERASTGTPPAA | soluble |
| MDPDNRVRQRAVKTLGKRGNPDVLEDLMEALKDSRQPVQEAASEALRKIIAASDSVPVLVKALDATDRNVRKAAIEALWKAGTPEAIPPLLRELDDADWYLRSRAADALADIASPEAALGLIKVMDIHDSPVKKIIVNALGKIGTVEAVEGLVKALEDLEHHHHHH | soluble |
| GGCYERIFAVPQQERTSLRVVTALAHGCDLVITRAGPTPRTYTPLQTQRFRNSLRSDAGCVIMMGDHVVSPAARLASAVVGYHGIGKGTGRIKAVEITVTGIAKGFYRTSRVIVGKHIAPAAEKTTMKVV | not soluble |
| MGSSHHHHHHSSGLVPAGSHMSDFDNITTADDVFKLAAQRTGLSEIDSDSWREGLALIVDEVNTSPVFTPFGRQRVLDDATNALGRRLQVHAYIQDHPEVLDAPVERPLIVLGMPRTGTTVISYLLDQDPARRSLLHWQCVHPIPPASTETLRTDPRCLALLDEQRKILDAVTRAKMPLPHWEDADGPTEDMFIHNQDFKGLSWDSFLPTDRYARWLFDEADMSSTYEYQKRYLQVLQSTAPGSWSLKMPSHSVHIEALLKVFPDARLIWAHRDPYKATGSLCNLWRLPQSLVMNTELLDQTEMGRLAMWQMRYHVDRPLRARERIGDERFFHMYYHEMMRDPMDVMRRIYEWADEPLTAETEARMRNWLAHHPQDRFALNAYRLDEYGLTVEALQPIFAEYLDTFDIELEGRP | soluble |
| MGSDKIHHHHHHMKITKATDITLNDSCYLIYGNPGFGKTSVLKYIPGKTLVIDIDKSSKVLSGCENISIAEVDTHKIWDEWLNVVKELLKGAAEPFDTIVVDNVSELFRACLANLGREGKNHRVPSQADYQRVDFTILDSLRALLQLKKRIVFTAWETSDQWTDENGMIYNRAMPDIRSKILNNFLGLTDVVARLVKKTTEDGEEVRGFILQPSASVYAKNRLDDRKGCKVDELFTTELPS | not soluble |
| MGFGDIQTQPGTYSMHHMTTSTRITSRFLKNKTTNMKRLGVDPPCGVPEPKEDVLLAVSCDAFAFGQDDTNNDRITVEWTNTPDGAAKQFRREWF | not soluble |
| MDKLGLSKRGYFDFALKNKKWILLAVSGYGAFRVYHSPSISQKRKRISKLFTLLLNLIEAASDSAETVSVISKDLTEFLRSDSDQIPNSLKQISKIAKSDELNSSLIRFTQAMTVGLIRGIDDGSGSGFTDRVMDKLFTKSGSGFASAIVGSFARNLVVALYSSAGDGSNSKLLDAVFSDDGRRLIGDCVQRFVSTAVSVYLDKTSDVNVFDDLFAGLTNPKHEGKVKQTLVTLCNSAVETFVRASRKPVQLNRSSSCQDSSQTLTVGSTKQATWIDRVSSSLSVPSNRKYVVDLTGRVTFETVRSLLEVLIERANGKVESYVEKVRERGNETRRFVRVKTSLLHSLCLSLCLQIVEAPWMLTPRN | not soluble |
| MLAVSFIAGVILIGLYGVDSSERYIAVSELLANPQDYSGQNINAMGVVEDRSLHKDPGVTSFDLKDENDENLKIHVNYVGNLPSNLAEGKQVTIRGSMISESTFEANKIVTGCPSKYTELEHHHHHH | not soluble |
| GAMAMSGGLPELGSKISLISKADIRYEGRLYTVDPQECTIALSSVRSFGTEDRDTQFQIAPQSQIYDYILFRGSDIKDIRVVNNHTLP | soluble |
| MTPDPLAPLDLAFWNIESAEHPMHLGALGVFEADSPTAGALAADLLAARAPAVPGLRMRIRDTWQPPMALRRPFAFGGATREPDPRFDPLDHVRLHAPATDFHARAGRLMERPLERGRPPWEAHVLPGADGGSFAVLFKFHHALADGLRALTLAAGVLDPMDLPAPRPRPEQPPRGLLPDVRALPDRLRGALSDAGRALDIGAAAALSTLDVRSSPALTAASSGTRRTAGVSVDLDDVHHVRKTTGGTVNDVLIAVVAGALRRWLDERGDGSEGVAPRALIPVSRRRPRSAHPQGNRLSGYLMRLPVGDPDPLARLGTVRAAMDRNKDAGPGRGAGAVALLADHVPALGHRLGGPLVSGAARLWFDLLVTSVPLPSLGLRLGGHPLTEVYPLAPLARGHSLAVAVSTYRGRVHYGLLADAKAVPDLDRLAVAVAEEVETLLTACRPLEHHHHHH | soluble |
